Results published in article PMC4264680.
Read-outs that look alike come from different tables or passages of the source.

Legend:
Experiment in all cases: EMSA
CREB (purified) [1] = target: T1, CREB (purified) (UniProt P16220 1-327)
[2] = target: hnRNP K (purified);CREB (purified) (;, UniProt P61978;P16220 1-463;1-327, |)
CREB (purified) [3] = target: T1, CREB (purified); remark: listed apart in the source

T1 sequence (P16220 whole entry): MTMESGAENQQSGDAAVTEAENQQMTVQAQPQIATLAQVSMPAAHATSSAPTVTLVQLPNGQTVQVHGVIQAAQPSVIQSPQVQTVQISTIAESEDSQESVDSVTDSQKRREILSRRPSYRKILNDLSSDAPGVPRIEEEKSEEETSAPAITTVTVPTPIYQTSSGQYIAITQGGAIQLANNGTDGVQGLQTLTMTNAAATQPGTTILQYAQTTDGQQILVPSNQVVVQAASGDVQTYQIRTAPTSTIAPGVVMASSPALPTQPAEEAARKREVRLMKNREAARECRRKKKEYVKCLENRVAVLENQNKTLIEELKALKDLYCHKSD
hnRNP K (purified);CREB (purified), sequence (P16220 whole entry, chain 2 of 2, other chains not shown): as the sequence (P16220 whole entry) above

B1: CRE mutant duplex (EMSA) (dsDNA)
DNA 1: GCAGGAGGTAGGAGGTGGGGGACCCAGAGGGGCTTGTCATCAGGCCTGGCC
DNA 2: GGCCAGGCCTGATGACAAGCCCCTCTGGGTCCCCCACCTCCTACCTCCTGC
binding result (CREB (purified) [1]): binds

B2: Th GC-R1/CRE duplex WT (EMSA) (dsDNA)
DNA 1: GCAGGAGGTAGGAGGTGGGGGACCCAGAGGGGCTTTGACGTCAGCCTGGCC
DNA 2: GGCCAGGCTGACGTCAAAGCCCCTCTGGGTCCCCCACCTCCTACCTCCTGC
binding result [2]: binds
binding result (CREB (purified) [3]): binds
